Results reported in US20230391852A1 (US Dept. of Health and Human Services, published 2023).
“And” between values parts separate entries of the source, which are not always exact repeats. Identical values can stand only once.

What was measured:
SARS-CoV-2 S trimer = molecular target: T1, SARS-CoV-2 S trimer (SARS-CoV-2, UniProt P0DTC2 16-1213); test: monoclonal phage ELISA, drawn table of OD450 values
T1 construct: also called SARS-CoV-2 S protein; S homotrimer protein

SARS-CoV-2 RBD = SARS-CoV-2 RBD (SARS-CoV-2, UniProt P0DTC2 319-541); test: as above
SARS-CoV S1 = molecular target: T2, SARS-CoV S1 (SARS-CoV, UniProt P59594 14-667); test: ELISA, 1 µg/ml coated antigen, 1 µg/ml VHH-hFc
T2 construct: domain: S1; also called SARS-CoV S1 protein

BSA = molecular target: T3, BSA (UniProt P02769 25-607); test: ELISA, 1 µg/ml coated BSA, 1 µg/ml VHH-hFc
T3 construct: also called control protein

[1] = molecular target: SARS-CoV-2 spike on pseudovirus (SARS-CoV-2, UniProt P0DTC2 14-1273); test: cell-based or functional assay
[2] = molecular target: T4, SARS-CoV S protein trimer expressed on human A431 cells (SARS-CoV, UniProt P59594 14-1255); test: flow cytometry on A431 cells expressing SARS-CoV S (A431-CoV-S)
T4 construct: whole, on cells; also called S protein of SARS-CoV

RBD-mFc [3] = molecular target: T5, RBD-mFc (SARS-CoV-2, UniProt P0DTC2 319-541)
RBD-mFc [4] = molecular target: T5, RBD-mFc; remark: listed apart in the source
[5] = molecular target: T4, SARS-CoV S protein trimer expressed on …; test: flow cytometry on A431 cells expressing SARS-CoV S protein trimer (FIG. 3B)

T3 sequence (P02769 25-607 limits assumed): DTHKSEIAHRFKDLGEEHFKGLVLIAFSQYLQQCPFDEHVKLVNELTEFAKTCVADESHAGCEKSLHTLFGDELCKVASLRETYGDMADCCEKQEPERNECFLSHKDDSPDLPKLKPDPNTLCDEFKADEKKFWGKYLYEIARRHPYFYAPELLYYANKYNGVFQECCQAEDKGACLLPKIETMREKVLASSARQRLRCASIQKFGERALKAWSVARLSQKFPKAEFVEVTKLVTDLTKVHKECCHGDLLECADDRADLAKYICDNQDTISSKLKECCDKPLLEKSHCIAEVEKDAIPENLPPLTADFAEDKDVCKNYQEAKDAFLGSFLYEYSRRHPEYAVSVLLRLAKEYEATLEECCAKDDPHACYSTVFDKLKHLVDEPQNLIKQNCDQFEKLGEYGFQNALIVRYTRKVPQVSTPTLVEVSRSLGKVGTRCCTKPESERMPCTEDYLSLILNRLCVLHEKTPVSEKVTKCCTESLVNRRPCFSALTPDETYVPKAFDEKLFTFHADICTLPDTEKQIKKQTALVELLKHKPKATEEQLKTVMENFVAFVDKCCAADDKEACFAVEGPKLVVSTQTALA

Binder | binding result (SARS-CoV S1) | Kd (SARS-CoV-2) [nM] | binding result (BSA) | IC50, SARS-CoV-2 spike pseudovirus neutralization, repeated assay (FIGS. 9A-9F) [1] [nM] | percent of cells right of the dashed gate line [2] [%] | also measured
NCI-CoV-7E7 (VHH) VHH: AVQLVDSGGGSVQSGGSLRLSCVASGYTYSIYNMGWFRQAPGKGLEWVSGINSDGSNTYYADSVKGRFTISRDNAKNTLYLQMNSLKSEDTALYYCATLPICSGGYCPPGYWGQGTQVTVSS | – | – | – | – | – | OD450 (SARS-CoV-2 S trimer): 0.57; OD450 (SARS-CoV-2 RBD): 1
1H6 VHH-hFc (Fc fusion, also called 1H6-hFc; NCI-CoV-1H6 VHH-hFc fusion protein) AVQLVDSGGGSVQAGGSLNLSCVASGTTLRNGCMAWFRQVPGKEREVVAIIIRATSYTDYADSVKGRFTISQDNAKNTVYLQMKSLTPEDTATYYCAATLYRVNCAKREFDKWGQGTQVTVSS | no binding (tested: 1 µg/ml) | 37 | – | – | – | –
7C4 VHH-hFc (Fc fusion, also called NCI-CoV-7C4 VHH-hFc fusion protein) EVQLVESGGGLVQPGGSLRLSCTASGFTFSSYDMSWVRQAPGKGLEWVSGINSGGNKIYYADSVKGRFTISRDNAKNTLYLQMSSLKSEDTALYYCAIGRLYSVKGQGTQVTVSS | binds | – | no binding (tested: 1 µg/ml) | 4290 | – | –
7A5 VHH-hFc (Fc fusion, also called NCI-CoV-7A5 VHH-hFc fusion protein) AVQLVESGGGLVQPGGSLRLSCAASGFTFSSYYMSWVRQAPGKGLEWVSTINSRGSSTYYADSVKGRFTISRDNAKNTLYLQMSSLKSEDTALYYCAIGRLYSVKGQGTQVTVSS | binds | – | binds | 3430 | – | –
7A3 VHH-hFc (Fc fusion, also called 7A3-hFc; NCI-CoV-7A3 VHH-hFc fusion protein) QVQLVESGGGSVQPGGSLRLSCVVSGYTSSSRYMGWFRQVPGKGLEWVSGIKRDGTNTYYADSVKGRFTISQDNAKNTVYLQMNSLKPEDTAMYYCAAGSWYNQWGYSMDYWGKGTQVTVSS | – | 0.2 | – | – | 92.1 | –
1B5 VHH-hFc (Fc fusion, also called 1B5-hFc; NCI-CoV-1B5 VHH-hFc fusion protein) DVQLVESGGGSVQAGGSLRLSCTGSRYTYSTYCMGWFRQAPGKEEEAVAIINSGGGEPYYGDSVKGRFTISQDRAKNTVYLQMDGLQPDDTAIYYCVAADSHNSRCYLGRSYVNYWGQGTQVTVSS | – | 0.1 | no binding (tested: 1 µg/ml) | 7.6 | 98.3 | IC50, SARS-CoV-2 spike pseudovirus neutralization on HEK 293T-hACE2 cells [1]: 6.6 nM and 0.55 µg/ml; IC50 (RBD-mFc [3]): < 0.001 µg/mL; IC50 (read off the curve) (RBD-mFc [4]): ~0.3 µg/mL
3E8 VHH-hFc (Fc fusion, also called NCI-CoV-3E8 VHH-hFc fusion protein) QVQLVESGGGLVQAGGSLRLSCATSGFTFSGGYMAWVRQVPGKGLEWVANSIYDGSTYYSDAVKGRFTVSQDNAENTVYLEMNSLEPEDTAMYYCAAGWNGGPWSRTNAYIYWGQGTQVTVSS | binds | – | no binding (tested: 1 µg/ml) | 1170 | – | –
8A2 VHH-hFc (Fc fusion, also called NCI-CoV-8A2 VHH-hFc) AVQLVDSGGGSVQAGGSLRLSCAASGYTYSICTMGWYRQAPGEGLEWVSGINADGSNTHYTDSVKGRFTISRDNAKKTLYLQMNSLKPEDTAIYYCAAHGTYDKYAPCGGFAGTYTYWGQGTQVTVSS | – | 0.26 | – | – | 59.2 | binding result [5]: no binding
